Experimental data from US20180155451A1 (published 2018).

T1: FcγRIIb extracellular domain with C-terminal His tag (human, UniProt P31994 43-217)
T1 construct: extracellular domain; also called 2b; FcgRIIb; not shown: His tag at the C terminus
T1 sequence (looked up): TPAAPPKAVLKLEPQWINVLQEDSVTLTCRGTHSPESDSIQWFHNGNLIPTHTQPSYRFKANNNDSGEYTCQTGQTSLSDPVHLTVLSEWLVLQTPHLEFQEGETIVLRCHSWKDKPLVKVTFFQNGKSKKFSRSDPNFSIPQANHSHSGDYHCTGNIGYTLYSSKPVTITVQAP

B1: GpH7-A5/GpH7-B3 variant L328_14T/GpL16-k0 (antibody, human IgG1, kappa)
heavy 1: not shown
heavy 2: not shown
light: DIVMTQSPLSLPVTPGEPASISCQASESLVHSNRNTYLHWYLQKPGQSPQLLIYKVSNRFSGVPDRFSGSGSGTDFTLKISRVEAEDVGVYYCSQNTHVPPTFGQGTKVEIERTVAAPSVFIFPPSDEQLKSGTASVVCLLNNFYPREAKVQWKVDNALQSGNSQESVTEQDSKDSTYSLSSTLTLSKADYEKHKVYACEVTHQGLSSPVTKSFNRGEC
notes: He Ab: mutation in the GpH7-B3 H chain only; also called He Ab
B2: GpH7-A5/GpH7-B3 variant V266_11K/GpL16-k0 (antibody, human IgG1, kappa)
heavy 1: not shown
heavy 2: not shown
light: B1 light
notes: as for B1
B3: GpH7-A5/GpH7-B3 variant P331_15Y/GpL16-k0 (antibody, human IgG1, kappa)
heavy 1: not shown
heavy 2: not shown
light: B1 light
notes: as for B1
B4: GpH7-A5/GpH7-B3 variant V266_09D/GpL16-k0 (antibody, human IgG1, kappa)
heavy 1: not shown
heavy 2: not shown
light: B1 light
notes: as for B1
B5: GpH7-A5/GpH7-B3 variant L328_15Y/GpL16-k0 (antibody, human IgG1, kappa)
heavy 1: not shown
heavy 2: not shown
light: B1 light
notes: as for B1
B6: GpH7-A5/GpH7-B3 variant S267_09D/GpL16-k0 (antibody, human IgG1, kappa)
heavy 1: not shown
heavy 2: not shown
light: B1 light
notes: as for B1
B7: GpH7-A5/GpH7-B3 variant P331_06M/GpL16-k0 (antibody, human IgG1, kappa)
heavy 1: not shown
heavy 2: not shown
light: B1 light
notes: as for B1
B8: GpH7-A5/GpH7-B3 variant V266_10E/GpL16-k0 (antibody, human IgG1, kappa)
heavy 1: not shown
heavy 2: not shown
light: B1 light
notes: as for B1
B9: GpH7-A5/GpH7-B3 variant V266_13S/GpL16-k0 (antibody, human IgG1, kappa)
heavy 1: not shown
heavy 2: not shown
light: B1 light
notes: as for B1
B10: GpH7-A5/GpH7-B3 variant S337_07I/GpL16-k0 (antibody, human IgG1, kappa)
heavy 1: not shown
heavy 2: not shown
light: B1 light
notes: as for B1
B11: GpH7-A5/GpH7-B3 variant N325_08L/GpL16-k0 (antibody, human IgG1, kappa)
heavy 1: not shown
heavy 2: not shown
light: B1 light
notes: as for B1
B12: GpH7-A5/GpH7-B3 variant N325_09D/GpL16-k0 (antibody, human IgG1, kappa)
heavy 1: not shown
heavy 2: not shown
light: B1 light
notes: as for B1
B13: GpH7-A5/GpH7-B3 variant V266_07I/GpL16-k0 (antibody, human IgG1, kappa)
heavy 1: not shown
heavy 2: not shown
light: B1 light
notes: as for B1
B14: GpH7-A5/GpH7-B3 variant P331_10E/GpL16-k0 (antibody, human IgG1, kappa)
heavy 1: not shown
heavy 2: not shown
light: B1 light
notes: as for B1
B15: GpH7-A5/GpH7-B3 variant N325_04F/GpL16-k0 (antibody, human IgG1, kappa)
heavy 1: not shown
heavy 2: not shown
light: B1 light
notes: as for B1
B16: GpH7-A5/GpH7-B3 variant P331_03V/GpL16-k0 (antibody, human IgG1, kappa)
heavy 1: not shown
heavy 2: not shown
light: B1 light
notes: as for B1
B17: GpH7-A5/GpH7-B3 variant V266_02A/GpL16-k0 (antibody, human IgG1, kappa)
heavy 1: not shown
heavy 2: not shown
light: B1 light
notes: as for B1
B18: GpH7-A5/GpH7-B3 variant S267_07I/GpL16-k0 (antibody, human IgG1, kappa)
heavy 1: not shown
heavy 2: not shown
light: B1 light
notes: as for B1
B19: GpH7-A5/GpH7-B3 variant N325_13S/GpL16-k0 (antibody, human IgG1, kappa)
heavy 1: not shown
heavy 2: not shown
light: B1 light
notes: as for B1
B20: GpH7-A5/GpH7-B3 variant T335_04F/GpL16-k0 (antibody, human IgG1, kappa)
heavy 1: not shown
heavy 2: not shown
light: B1 light
notes: as for B1
B21: GpH7-A5/GpH7-B3 variant T335_18N/GpL16-k0 (antibody, human IgG1, kappa)
heavy 1: not shown
heavy 2: not shown
light: B1 light
notes: as for B1
B22: GpH7-A5/GpH7-B3 variant L328_19Q/GpL16-k0 (antibody, human IgG1, kappa)
heavy 1: not shown
heavy 2: not shown
light: B1 light
notes: as for B1
B23: GpH7-A5/GpH7-B3 variant L328_20W/GpL16-k0 (antibody, human IgG1, kappa)
heavy 1: not shown
heavy 2: not shown
light: B1 light
notes: as for B1
B24: GpH7-A5/GpH7-B3 variant S267_03V/GpL16-k0 (antibody, human IgG1, kappa)
heavy 1: not shown
heavy 2: not shown
light: B1 light
notes: as for B1
B25: GpH7-A5/GpH7-B3 variant S337_08L/GpL16-k0 (antibody, human IgG1, kappa)
heavy 1: not shown
heavy 2: not shown
light: B1 light
notes: as for B1
B26: GpH7-A5/GpH7-B3 variant N325_03V/GpL16-k0 (antibody, human IgG1, kappa)
heavy 1: not shown
heavy 2: not shown
light: B1 light
notes: as for B1
B27: GpH7-A5/GpH7-B3 variant P331_04F/GpL16-k0 (antibody, human IgG1, kappa)
heavy 1: not shown
heavy 2: not shown
light: B1 light
notes: as for B1
B28: GpH7-A5/GpH7-B3 variant V266_04F/GpL16-k0 (antibody, human IgG1, kappa)
heavy 1: not shown
heavy 2: not shown
light: B1 light
notes: as for B1
B29: GpH7-A5/GpH7-B3 variant P331_16H/GpL16-k0 (antibody, human IgG1, kappa)
heavy 1: not shown
heavy 2: not shown
light: B1 light
notes: as for B1
B30: GpH7-A5/GpH7-B3 variant S267_05P/GpL16-k0 (antibody, human IgG1, kappa)
heavy 1: not shown
heavy 2: not shown
light: B1 light
notes: as for B1
B31: GpH7-A5/GpH7-B3 variant V266_14T/GpL16-k0 (antibody, human IgG1, kappa)
heavy 1: not shown
heavy 2: not shown
light: B1 light
notes: as for B1
B32: GpH7-A5/GpH7-B3 variant S267_06M/GpL16-k0 (antibody, human IgG1, kappa)
heavy 1: not shown
heavy 2: not shown
light: B1 light
notes: as for B1
B33: GpH7-A5/GpH7-B3 variant S267_04F/GpL16-k0 (antibody, human IgG1, kappa)
heavy 1: not shown
heavy 2: not shown
light: B1 light
notes: as for B1
B34: GpH7-A5/GpH7-B3 variant V266_08L/GpL16-k0 (antibody, human IgG1, kappa)
heavy 1: not shown
heavy 2: not shown
light: B1 light
notes: as for B1
B35: GpH7-A5/GpH7-B3 variant S267_02A/GpL16-k0 (antibody, human IgG1, kappa)
heavy 1: not shown
heavy 2: not shown
light: B1 light
notes: as for B1
B36: GpH7-A5/GpH7-B3 variant V266_05P/GpL16-k0 (antibody, human IgG1, kappa)
heavy 1: not shown
heavy 2: not shown
light: B1 light
notes: as for B1
B37: GpH7-A5/GpH7-B3 variant V266_15Y/GpL16-k0 (antibody, human IgG1, kappa)
heavy 1: not shown
heavy 2: not shown
light: B1 light
notes: as for B1
B38: GpH7-A5/GpH7-B3 variant P331_20W/GpL16-k0 (antibody, human IgG1, kappa)
heavy 1: not shown
heavy 2: not shown
light: B1 light
notes: as for B1
B39: GpH7-A5/GpH7-B3 variant P331_07I/GpL16-k0 (antibody, human IgG1, kappa)
heavy 1: not shown
heavy 2: not shown
light: B1 light
notes: as for B1
B40: GpH7-A5/GpH7-B3 variant V266_06M/GpL16-k0 (antibody, human IgG1, kappa)
heavy 1: not shown
heavy 2: not shown
light: B1 light
notes: as for B1
B41: GpH7-A5/GpH7-B3 variant S267_08L/GpL16-k0 (antibody, human IgG1, kappa)
heavy 1: not shown
heavy 2: not shown
light: B1 light
notes: as for B1
B42: GpH7-A5/GpH7-B3 variant V266_16H/GpL16-k0 (antibody, human IgG1, kappa)
heavy 1: not shown
heavy 2: not shown
light: B1 light
notes: as for B1
B43: GpH7-A5/GpH7-B3 variant N325_20W/GpL16-k0 (antibody, human IgG1, kappa)
heavy 1: not shown
heavy 2: not shown
light: B1 light
notes: as for B1
B44: GpH7-A5/GpH7-B3 variant N325_06M/GpL16-k0 (antibody, human IgG1, kappa)
heavy 1: not shown
heavy 2: not shown
light: B1 light
notes: as for B1
B45: GpH7-A5/GpH7-B3 variant S267_01G/GpL16-k0 (antibody, human IgG1, kappa)
heavy 1: not shown
heavy 2: not shown
light: B1 light
notes: as for B1
B46: GpH7-A5/GpH7-B3 variant N325_07I/GpL16-k0 (antibody, human IgG1, kappa)
heavy 1: not shown
heavy 2: not shown
light: B1 light
notes: as for B1

biological target: T2, FcγRIIIa extracellular domain with C-terminal His tag (human, UniProt P08637 17-208); assay: SPR (Biacore), relative binding, GpH7-A5/GpH7-B3/GpL16-k0 = 100
T2 construct: extracellular domain; also called 3a; FcgRIIIa; not shown: His tag at the C terminus
Description: (§1) Analysis of interaction between objective antibody and the FcγR was carried out using Biacore T100 (GE Healthcare). HBS-EP+ (GE Healthcare) was used as the running buffer, and the measurement temperature was set to 25° C. Chips produced by immobilizing the antigen peptide by the amine coupling method to a Series S Sencor Chip CM5 (GE Healthcare), or alternatively, chips produced by allowing preliminarily biotinylated antigen peptides to interact with and immobilize onto a Series S Sensor Chip SA (certified) (GE Healthcare) were used. Antibodies of interest were captured onto an antigen peptide-immobilized chip, and allowed to interact to each FcγR diluted with running buffer. To regenerate and repeatedly use the chip, the antibodies captured on the chip were washed off by reacting 10 mM glycine-HCl, pH 1.5.
(§2) The FcγR-binding activity of each antibody was assessed primarily using as an indicator the FcγR-binding activity and dissociation constant for FcγR.

T2 sequence (P08637 17-208): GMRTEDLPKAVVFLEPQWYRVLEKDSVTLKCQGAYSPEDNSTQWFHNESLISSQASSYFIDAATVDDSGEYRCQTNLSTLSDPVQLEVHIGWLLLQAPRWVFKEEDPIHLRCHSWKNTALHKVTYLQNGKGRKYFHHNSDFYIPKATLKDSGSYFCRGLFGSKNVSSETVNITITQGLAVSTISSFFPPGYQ

| He/Con_3a | Binder |
| --- | --- |
| 75.3 % of control | B1 |
| -0.7 % of control | B2 |
| 81.9 % of control | B3 |
| 2.7 % of control | B4 |
| 68.3 % of control | B5 |
| 181 % of control | B6 |
| 74.8 % of control | B7 |
| 4.1 % of control | B8 |
| 28.1 % of control | B9 |
| 94.8 % of control | B10 |
| 33.3 % of control | B11 |
| 48 % of control | B12 |
| 114 % of control | B13 |
| 75.1 % of control | B14 |
| 20.7 % of control | B15 |
| 73.2 % of control | B16 |
| 57.4 % of control | B17 |
| 25.2 % of control | B18 |
| 65.1 % of control | B19 |
| 96 % of control | B20 |
| 98.8 % of control | B21 |
| 81.1 % of control | B22 |
| 37.4 % of control | B23 |

| He/Con_3a | Binder |
| --- | --- |
| 30.8 % of control | B24 |
| 96.9 % of control | B25 |
| 30.3 % of control | B26 |
| 77.3 % of control | B27 |
| 34.7 % of control | B28 |
| 80.2 % of control | B29 |
| 15.7 % of control | B30 |
| 39.4 % of control | B31 |
| 66 % of control | B32 |
| 11 % of control | B33 |
| 118 % of control | B34 |
| 150 % of control | B35 |
| -0.7 % of control | B36 |
| 14.5 % of control | B37 |
| 78.6 % of control | B38 |
| 66 % of control | B39 |
| 85.8 % of control | B40 |
| 19.5 % of control | B41 |
| 21.3 % of control | B42 |
| 32.8 % of control | B43 |
| 31.4 % of control | B44 |
| 53.8 % of control | B45 |
| 28.7 % of control | B46 |

biological target: T1, FcγRIIb extracellular domain with …; assay: as above
Description: as §1, §2

| He/Con_2b | Binder |
| --- | --- |
| 141 % of control | B1 |
| 1 % of control | B2 |
| 114 % of control | B3 |
| 10.1 % of control | B4 |
| 193 % of control | B5 |
| 310 % of control | B6 |
| 102 % of control | B7 |
| 15.2 % of control | B8 |
| 54.4 % of control | B9 |
| 104 % of control | B10 |
| 197 % of control | B11 |
| 124 % of control | B12 |
| 152 % of control | B13 |
| 116 % of control | B14 |
| 143 % of control | B15 |
| 119 % of control | B16 |
| 81 % of control | B17 |
| 192 % of control | B18 |
| 177 % of control | B19 |
| 103 % of control | B20 |
| 102 % of control | B21 |
| 105 % of control | B22 |
| 235 % of control | B23 |

| He/Con_2b | Binder |
| --- | --- |
| 192 % of control | B24 |
| 100 % of control | B25 |
| 111 % of control | B26 |
| 110 % of control | B27 |
| 57.6 % of control | B28 |
| 116 % of control | B29 |
| 31.5 % of control | B30 |
| 82.3 % of control | B31 |
| 210 % of control | B32 |
| 48 % of control | B33 |
| 236 % of control | B34 |
| 243 % of control | B35 |
| 0.4 % of control | B36 |
| 49.4 % of control | B37 |
| 111 % of control | B38 |
| 114 % of control | B39 |
| 251 % of control | B40 |
| 109 % of control | B41 |
| 57.2 % of control | B42 |
| 169 % of control | B43 |
| 217 % of control | B44 |
| 105 % of control | B45 |
| 171 % of control | B46 |
